Several values for one entry are separate records, joined by “and”; a condition that tells them apart may be missing. Identical values can stand only once. Where no end group is shown, it is not given here.
Key:
[1] = target: the molecule itself; assay: SEC-MALS; cleaved SUN1 constructs at > 5 mg/mL; Superdex 200 Increase 10/300 GL, 20 mM HEPES pH 7.5, 150 mM KCl, 2 mM DTT
[2] = target: the molecule itself; assay: crystal structure; SUN1 362–401 at 3.5 mg/mL, sitting drops, 20°C; spacegroup P2(1), a SUN1 trimer in the asymmetric unit; 2.07 Å
[3] = target: the molecule itself; assay: SEC-MALS; MBP-SUN1 α1 at 20 mg/mL and 1 mg/mL after purification, and at 20 mg/mL after over-night incubation with 2 mM zinc acetate (trimer stabilised); Superdex 200 Increase 10/300 GL, 20 mM HEPES pH 7.5, 150 mM KCl, 2 mM DTT; trimer to dimers to monomers

Protein	stoichiometry N [1]	also measured
SUN1 α1-α2 (human SUN1 amino-acids 362–584) (domain or fragment, UniProt O94901 362-584, looked up, human SUN1, Uniprot O94901, amino-acids 362–584 (α1 and α2 coiled-coils joined by their natural linker); Theoretical trimer 75 kDa; source: E. coli BL21 (DE3), purified (Ni-NTA, amylose, ion exchange, TEV cleavage, ion exchange, SEC); not shown: His, N-terminal, cleaved; MBP, N-terminal, cleaved) MSGVEQQVASLSGQCHHHGENLRELTTLLQKLQARVDQMEGGAAGPSASVRDAVGQPPRETDFMAFHQEHEVRMSHLEDILGKLREKSEAIQKELEQTKQKTISAVGEQLLPTVEHLQLELDQLKSELSSWRHVKTGCETVDAVQERVDVQVREMVKLLFSEDQQGGSLEQLLQRFSSQFVSKGDLQTMLRDLQLQILRNVTHHVSVTKQLPTSEAVVSAVSE	3	
SUN1 α1-α2-SUN (entire structured luminal domain of human SUN1, amino-acids 362–785) (domain or fragment, UniProt O94901 362-785, looked up, human SUN1, Uniprot O94901, amino-acids 362–785 (α1, α2 and the C-terminal SUN domain); Theoretical trimer 142 kDa; source: E. coli BL21 (DE3), purified (Ni-NTA, amylose, ion exchange, TEV cleavage, ion exchange, SEC); not shown: His, N-terminal, cleaved; MBP, N-terminal, cleaved) MSGVEQQVASLSGQCHHHGENLRELTTLLQKLQARVDQMEGGAAGPSASVRDAVGQPPRETDFMAFHQEHEVRMSHLEDILGKLREKSEAIQKELEQTKQKTISAVGEQLLPTVEHLQLELDQLKSELSSWRHVKTGCETVDAVQERVDVQVREMVKLLFSEDQQGGSLEQLLQRFSSQFVSKGDLQTMLRDLQLQILRNVTHHVSVTKQLPTSEAVVSAVSEAGASGITEAQARAIVNSALKLYSQDKTGMVDFALESGGGSILSTRCSETYETKTALMSLFGIPLWYFSQSPRVVIQPDIYPGNCWAFKGSQGYLVVRLSMMIHPAAFTLEHIPKTLSPTGNISSAPKDFAVYGLENEYQEEGQLLGQFTYDQDGESLQMFQALKRPDDTAFQIVELRIFSNWGHPEYTCLYRFRVHGEPVK	3	
MSGVEQQVASLSGQCHHHGENLRELTTLLQKLQARVDQME (domain or fragment, UniProt O94901 362-401, looked up, also: C376 partly oxidised to S-hydroperoxycysteine in crystal chain B, occupancy 0.62, human SUN1, Uniprot O94901, amino-acids 362–401 (α1 coiled-coil domain of the luminal region); Expressed from pMAT11 as a TEV-cleavable His-MBP fusion; tags removed with TEV protease; About one zinc ion per trimer was found in solution; the crystal lacked zinc; also called SUN1 362–401; source: E. coli BL21 (DE3), purified (Ni-NTA, amylose, ion exchange, TEV cleavage, ion exchange, SEC); not …) [SUN1 α1 (luminal coiled-coil domain of human SUN1, amino-acids 362–401)]		binding result [2]: binds
MSGVEQQVASLSGQCHHHGENLRELTTLLQKLQARVDQME (domain or fragment, UniProt O94901 362-401, looked up, human SUN1, Uniprot O94901, amino-acids 362–401 (α1 coiled-coil domain); The uncleaved His-MBP fusion from pMAT11, used to give greater molecular mass resolution in SEC-MALS; theoretical monomer 49 kDa; The His tag probably stays with the MBP (surmise); source: E. coli BL21 (DE3), purified (Ni-NTA, amylose, ion exchange); not shown: MBP, N-terminal, kept) [MBP-SUN1 α1 (MBP fusion of human SUN1 amino-acids 362–401)]		stoichiometry N [3]: 3 and 2
SUN1 α2 (second luminal coiled-coil domain of human SUN1, amino-acids 421–584) (domain or fragment, UniProt O94901 421-584, looked up, human SUN1, Uniprot O94901, amino-acids 421–584 (α2 coiled-coil domain); Theoretical monomer 19 kDa, so the cleaved protein stood in SEC-MALS; source: E. coli BL21 (DE3), purified (Ni-NTA, amylose, ion exchange, TEV cleavage, ion exchange, SEC); not shown: His, N-terminal, cleaved; MBP, N-terminal, cleaved) ETDFMAFHQEHEVRMSHLEDILGKLREKSEAIQKELEQTKQKTISAVGEQLLPTVEHLQLELDQLKSELSSWRHVKTGCETVDAVQERVDVQVREMVKLLFSEDQQGGSLEQLLQRFSSQFVSKGDLQTMLRDLQLQILRNVTHHVSVTKQLPTSEAVVSAVSE	3 and 2	
